Data as given in publication PMC10810272.

What was measured:
[1] = molecular target: Candidatus Methanomethylophilus alvus pyrrolysyl-tRNA synthetase (MaPylRS) (Candidatus Methanomethylophilus alvus) (UniProt M9SC49); assay: dynamic light scattering; Nano-S Zetasizer, five measurements; sample at 16 μM (0.5 mg/ml); dimer assigned from HullRad predictions on the crystal structure
[2] = molecular target: Candidatus Methanomethylophilus alvus pyrrolysyl-tRNA synthetase (MaPylRS) (Candidatus Methanomethylophilus alvus) (UniProt M9SC49); assay: AUC; sedimentation velocity, 20°C, 30 000 rpm; 50 mM MES pH 5.2, 500 mM NaCl, 10 mM MgCl2; multiple concentrations (0.3, 0.6 and 1.2 mg/ml)

stoichiometry N [1]: 2
stoichiometry N [2]: 2
Substance: Candidatus Methanomethylophilus alvus pyrrolysyl-tRNA synthetase (MaPylRS) (from UniProt M9SC49 1-275) (enzyme)
